# Measurements taken from US11987606 (Johns Hopkins, dated 2024).
# Target: T cell receptor of Ova-specific CD8+ T cells (OT-I), on OT-I cells (mouse)
# Test: cell-based or functional assay
binder,measurement,value
Kb(Ova)/ANXA5 (peptide-MHC) SIINFEKLGGGASGGGGSGGGGSIQKTPQIQVYSRHPPENGKPNILNCYVTQFHPPHIEIQMLKNGKKIPKVEMSDMSFSKDWSFYILAHTEFTPTETDTYACRVKHASMAEPKTVYWDRDMGGGGSGGGGSGGGGSGGGGSGPHSLRYFVTAVSRPGLGEPRYMEVGYVDDTEFVRFDSDAENPRYEPQAPWMEQEGPEYWERETQKAKGNEQSFRVDLRTLLGYYNQSKGGSHTIQVISGCEVGSDGRLLRGYQQYAYDGCDYIALNEDLKTWTAADMAALITKHKWEQAGEAERLRAYLEGTCVEWLRRYLKNGNATLLRTDSPKAHVTHHSRPEDKVTLRCWALGFYPADITLTWQLNGEELIQDMELVETRPAGDGTFQKWASVVVPLGKEQYYTCHVYHQGLPEPLTLRWEPPPSTRSMAQVLRGTVTDFPGFDERADAETLRKAMKGLGTDEESILTLLTSRSNAQRQEISAAFKTLFGRDLLDDLKSELTGKFEKLIVALMKPSRLYDAYELKHALKGAGTNEKVLTEIIASRTPEELRAIKQVYEEEYGSSLEDDVVGDTSGYYQRMLVVLLQANRDPDAGIDEAQVEQDAQALFQAGELKWGTDEEKFITIFGTRSVSHLRKVFDKYMTISGFQIEETIDRETSGNLEQLLLAVVKSIRSIPAYLAETLYYAMKGAGTDDHTLIRVMVSRSEIDLFNIRKEFRKNFATSLYSMIKGDTSGDYKKALLLLCGEDD,IFN-γ expression of OT-I cells (flow cytometry); potency relative to dimeric Kb(Ova)/Fc,> 100 fold
same,"IFN-γ expression of resting or naïve OT-I cells after 12 hours (flow cytometry); potency by minimal dose of antigen required to detect activation, relative to monomeric Kb(Ova)",> 1000 fold
